Blank lines part the entries; values can stand above or below the binder they belong to.
B2: Dis1–eGFP (full-length Dis1 with eGFP fused to its C-terminus) (natural protein, Schizosaccharomyces pombe, UniProt Q09933 1-882, looked up)
chain: MELDDFNSRILSQIFDKSWKVRFEAYESLLHALNRALDDSDVCFQPWIHDPALWKQGLCDSNVPTQEHAVKSLRCFLDKSRQKGVNSAKSFVVAPLLEKCLPSPRQSIRDASHQALLILAKSDALDYVLEGLFSAARVKHPKQAVASIKELNSLLENFGIPALSPIPFYKLIPTLFAQSDKNIRQEASNLSITLYAWVGNAFKTHVFPQLKQIQVSDLEASFQNVTSRTTTGGHISNSLNTQEVVLPSFSSNAKPKPHLSSKSSSQGNTLQRSTSSFSTPNRKVSQPSDFSASPSRSIVSPAKNIVGSTPVDVLSKLTPEFHTALSSPKWKDRKEALESMVPVCSNPVYQEGDYSELLRVIAKSLKDANVVVVGVAALLLTHIAKALRKGFLPYTGIVLPSLFDRFKERKSSLVHSLLDAANAIFESCGLNDIMDETLEFLKHKNPQVKTETLRWLNRCLQLTDVCPPRASLETLCSLCVTLINDTFEPVRMATTNVLATLVQIFSQPVLSKYIVGLDPKKLPKILELSKDITVNAHPNQPSRPRLPRVASPLKTSPVKLAVTPQAPSPLPSSNPSQASLTEESLSTRSSPTKPSTTSLRSQSLVNRFASSTLKAPSSSSKGVSNAASSKQSFPSSPSISKKLETSRLSTKKLPGSTMKAASALKEYPQQQSMKSGGEKQDNLVTITMSEKVELDLLREEKAIRQVQEAEDALERERLFREINDLQIQNAEMKEQVYEKESTISQKEVEITSLRNEKDRLSTRLQQVLLELEKQHETNEEAMDIDLKVPESGAIGRVTTRATATTAMDESGNAGMVSSGIHSVSTKPSSYGTRRSLAGSMLQKPTQFSRPSFMFSPEARDNWRESHDLSSHLWEQIQRMKKA
B3: GST–Mal3 (GST-tagged Mal3) (natural protein, Schizosaccharomyces pombe, UniProt Q10113 1-308, looked up)
chain: MSESRQELLAWINQVTSLGLTRIEDCGKGYAMIQIFDSIYQDIPLKKVNFECNNEYQYINNWKVLQQVFLKKGIDKVVDPERLSRCKMQDNLEFVQWAKRFWDQYYPGGDYDALARRGNRGPANTRVMNSSAGATGPSRRRQVSSGSSTPSMTKSSANNNNVSSTANTAAVLRAKQAQQQITSLETQLYEVNETMFGLERERDFYFNKLREIEILVQTHLTTSPMSMENMLERIQAILYSTEDGFELPPDQPADLTTALTDHDTNNVAEEAQMTDLKDSETQRVPSAPDFVHARLQSLEVDDDENITF
notes: Mal3, the sole EB1 homologue of fission yeast; also called Mal3 FL
B4: Mal3 (recombinant full-length, without fluorescent protein) (natural protein, Schizosaccharomyces pombe, UniProt Q10113 1-308, looked up)
chain: MSESRQELLAWINQVTSLGLTRIEDCGKGYAMIQIFDSIYQDIPLKKVNFECNNEYQYINNWKVLQQVFLKKGIDKVVDPERLSRCKMQDNLEFVQWAKRFWDQYYPGGDYDALARRGNRGPANTRVMNSSAGATGPSRRRQVSSGSSTPSMTKSSANNNNVSSTANTAAVLRAKQAQQQITSLETQLYEVNETMFGLERERDFYFNKLREIEILVQTHLTTSPMSMENMLERIQAILYSTEDGFELPPDQPADLTTALTDHDTNNVAEEAQMTDLKDSETQRVPSAPDFVHARLQSLEVDDDENITF
notes: Mal3, the sole EB1 homologue of fission yeast; also called unlabelled Mal3; source: bacterially expressed, purified (as in Maurer et al., 2011)
B7: Dis1 C2–eGFP (amino acids 690–882) (domain or fragment, Schizosaccharomyces pombe, UniProt Q09933 690-882, looked up)
chain: EKVELDLLREEKAIRQVQEAEDALERERLFREINDLQIQNAEMKEQVYEKESTISQKEVEITSLRNEKDRLSTRLQQVLLELEKQHETNEEAMDIDLKVPESGAIGRVTTRATATTAMDESGNAGMVSSGIHSVSTKPSSYGTRRSLAGSMLQKPTQFSRPSFMFSPEARDNWRESHDLSSHLWEQIQRMKKA
notes: also called Dis1-C2–eGFP (WT); source: bacterially expressed, purified (as the other Dis1–eGFP constructs)

Tests used:
[1] = target: B7; assay: pull-down; Mal3 (amino acids 174–247) mixed with wild-type or LAPA Dis1-C2–eGFP and pulled down by GFP trap beads; conditions: both partners purified
[2] = target: B4; assay: cell-based or functional assay
[3] = target: B2; assay: pull-down; GST pulldown: 1 µM GST, GST–Mal3 or truncated GST–Mal3 on glutathione–Sepharose beads with 0.5 µM Dis1–eGFP proteins; BRB80 with 85 mM KCl, 0.01% Brij-35, 1 mM DTT; 1 h at 4°C; conditions: both partners purified
[4] = target: B2; assay: TIRF microscopy on dynamic microtubules in vitro; Cy5-labelled MTs grown from immobilised GMPCPP-stabilised seeds; BRB80 with 85 mM KCl, 1 mM GTP, 10 mM β-mercaptoethanol, 0.1% Brij-35, 0.1% methylcellulose; 30±1°C; 10-20 nM Dis1–eGFP proteins with or without 20 nM-1 µM Mal3; conditions: both partners purified
[5] = target: T1, Dis1–HA (full-length Dis1 with a hemagglutinin tag at its C-terminus) (Schizosaccharomyces pombe, UniProt Q09933 1-882); assay: SEC; analytical gel filtration on Superose 6 10/300; 25 mM K-HEPES pH 7.5, 200 mM KCl, 1 mM EGTA, 1 mM MgCl2; 5 µM Dis1–eGFP with 10 µM tubulin, or 5 µM Dis1–HA with 20 µM Mal3; conditions: both partners purified
T1 construct: Dis1, fission yeast (S. pombe) member of the XMAP215/TOG family; cDNA optimised for E. coli codons; also called recombinant Dis1 with an HA tag; source: bacterially expressed, purified (IgG Sepharose, Precision protease); not shown: HA, C-terminal, kept
T1 sequence (looked up): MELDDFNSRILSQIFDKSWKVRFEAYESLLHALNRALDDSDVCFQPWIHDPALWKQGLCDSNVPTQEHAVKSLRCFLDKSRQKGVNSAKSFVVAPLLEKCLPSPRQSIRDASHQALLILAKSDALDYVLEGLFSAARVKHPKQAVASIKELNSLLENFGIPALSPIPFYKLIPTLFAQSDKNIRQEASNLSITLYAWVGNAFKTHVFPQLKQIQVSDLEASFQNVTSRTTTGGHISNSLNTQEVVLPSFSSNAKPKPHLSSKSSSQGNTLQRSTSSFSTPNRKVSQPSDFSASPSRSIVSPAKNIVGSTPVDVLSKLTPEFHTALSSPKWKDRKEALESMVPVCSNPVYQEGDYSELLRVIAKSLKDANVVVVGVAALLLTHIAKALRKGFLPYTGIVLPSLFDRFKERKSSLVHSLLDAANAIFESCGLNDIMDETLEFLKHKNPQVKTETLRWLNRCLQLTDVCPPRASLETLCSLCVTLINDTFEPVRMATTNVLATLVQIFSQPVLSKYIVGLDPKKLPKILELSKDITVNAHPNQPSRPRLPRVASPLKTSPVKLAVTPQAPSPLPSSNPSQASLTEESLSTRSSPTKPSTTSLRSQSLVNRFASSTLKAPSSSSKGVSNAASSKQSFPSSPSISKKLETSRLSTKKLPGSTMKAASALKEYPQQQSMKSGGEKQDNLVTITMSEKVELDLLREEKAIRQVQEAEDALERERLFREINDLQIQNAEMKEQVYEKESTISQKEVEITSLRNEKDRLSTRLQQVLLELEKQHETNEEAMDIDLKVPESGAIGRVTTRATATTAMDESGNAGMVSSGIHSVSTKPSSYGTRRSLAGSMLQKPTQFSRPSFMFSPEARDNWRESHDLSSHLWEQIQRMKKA

[6] = target: B3; assay: pull-down; peptide competition: 1 µM GST–Mal3 on glutathione beads pre-incubated 30 min with Dis1 peptide (0, 0.5, 2.5, 5.0, 50, 100 µM), then 0.5 µM Dis1 C2–eGFP for 1 h; conditions: both partners purified
[7] = target: T2, Dis1 C1–eGFP (amino acids 520–882) (Schizosaccharomyces pombe, UniProt Q09933 520-882); assay: pull-down; GST pulldown: 1 µM GST, GST–Mal3 or truncated GST–Mal3 on glutathione–Sepharose beads with 0.5 µM Dis1–eGFP proteins; BRB80 with 85 mM KCl, 0.01% Brij-35, 1 mM DTT; 1 h at 4°C; conditions: both partners purified
T2 construct: source: bacterially expressed, purified (as the other Dis1–eGFP constructs)
T2 sequence (looked up): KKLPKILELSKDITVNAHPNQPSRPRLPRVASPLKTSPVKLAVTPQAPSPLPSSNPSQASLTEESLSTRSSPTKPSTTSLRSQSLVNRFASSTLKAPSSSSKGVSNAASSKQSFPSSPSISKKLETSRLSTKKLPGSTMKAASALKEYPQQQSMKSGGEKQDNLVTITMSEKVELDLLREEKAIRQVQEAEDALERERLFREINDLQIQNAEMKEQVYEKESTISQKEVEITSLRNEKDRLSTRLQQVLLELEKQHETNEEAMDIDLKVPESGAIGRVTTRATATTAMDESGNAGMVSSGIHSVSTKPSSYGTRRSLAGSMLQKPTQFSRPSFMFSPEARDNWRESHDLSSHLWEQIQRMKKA

[8] = target: B4; assay: TIRF microscopy on dynamic microtubules in vitro; Cy5-labelled MTs grown from immobilised GMPCPP-stabilised seeds; BRB80 with 85 mM KCl, 1 mM GTP, 10 mM β-mercaptoethanol, 0.1% Brij-35, 0.1% methylcellulose; 30±1°C; 10-20 nM Dis1–eGFP proteins with or without 20 nM-1 µM Mal3; conditions: both partners purified

binding result [1]: binds
B1: Mal3 C4 (amino acids 174–247; C-terminal part of the coiled-coil and the EBH domain) (domain or fragment, Schizosaccharomyces pombe, UniProt Q10113 174-247, looked up)
chain: AKQAQQQITSLETQLYEVNETMFGLERERDFYFNKLREIEILVQTHLTTSPMSMENMLERIQAILYSTEDGFEL
notes: Homodimer in both crystal structures; also called Mal3 EBH domain; source: purified (His-tag resin, TEV protease, gel filtration)

Binder: B2
MT catastrophe frequency with Mal3 and Dis1 together, fold over tubulin alone (Mal3 alone ∼1.9-fold, Dis1 alone no effect) [2]: ~3.8 fold

Binder: B3
binding result [3]: binds

Binder: B4
binding result [4]: binds
binding result [5]: binds

binding result [6]: binds
B5: Dis1 peptide (amino acids 833–852) (peptide, UniProt Q09933 833-852, looked up)
peptide: RRSLAGSMLQKPTQFSRPSF
notes: source: spotted on the peptide array membrane

binding result [7]: binds
B6: GST–Mal3 C1 (amino acids 144–308) (domain or fragment, Schizosaccharomyces pombe, UniProt Q10113 144-308, looked up)
chain: SSGSSTPSMTKSSANNNNVSSTANTAAVLRAKQAQQQITSLETQLYEVNETMFGLERERDFYFNKLREIEILVQTHLTTSPMSMENMLERIQAILYSTEDGFELPPDQPADLTTALTDHDTNNVAEEAQMTDLKDSETQRVPSAPDFVHARLQSLEVDDDENITF
notes: also called C-terminal half

Binder: B7
binding result [8]: binds
binding result [6]: binds

From article PMC5201023, “An unconventional interaction between Dis1/TOG and Mal3/EB1 in fission yeast promotes the fidelity of chromosome segregation” (Journal of Cell Science, 2016)
